Results reported in patent US11034759B2, “Humanized M-CSF specific monoclonal antibodies, kits, and uses thereof” (NOVARTIS VACCINES AND DIAGNOSTICS, INC., priority 2004, dated 2021).

T1: MCSF (Homo sapiens, UniProt P09603)
T1 sequence (P09603 33-255 limits assumed): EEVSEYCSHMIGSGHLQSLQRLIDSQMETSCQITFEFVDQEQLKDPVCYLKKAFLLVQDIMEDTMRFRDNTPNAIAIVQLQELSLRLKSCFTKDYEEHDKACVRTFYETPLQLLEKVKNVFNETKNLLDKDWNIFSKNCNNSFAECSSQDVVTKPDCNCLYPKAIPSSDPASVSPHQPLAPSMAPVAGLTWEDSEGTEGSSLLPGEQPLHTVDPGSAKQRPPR


What was measured:
MCSF [1] = molecular target: T1, MCSF; experiment: Biacore analysis of Human Engineered RX1 antibodies, M-CSF immobilized (Example 13); type: binding
Method: To determine the relative differences in the binding affinity of intact antibodies by Biacore analysis, M-CSF was immobilized onto CMS biosensor chip via amine coupling. 0.05 μg/ml M-CSF in 10 mM Na-Acetate pH 4.0 was injected at 1 μl/min for 5 minutes to achieve RL=6-12 RU. Test antibody or Fab fragments were flowed over the modified biosensor surface at varying concentrations ranging from 100 nM to 1.5 nM in 2-fold dilutions. Test antibodies were diluted in 0.01 M HEPES pH 7.4, 0.15 M NaCL, 3 mM EDTA, 0.005% Surfactant P20 (HBS-EP) and all experiments were done at 25° C. Each concentration point and buffer blanks were run in triplicate, and data was collected over 3 minutes of association and 8 minutes of dissociation. Kinetic and affinity constants were determined using Biaevaluation software with a 1:1 interaction model/global fit.

MCSF [2] = molecular target: T1, MCSF; experiment: Size of antigen-antibody complex by size exclusion chromatography or light scattering; conditions: M-CSF and antibody at equal molar ratios
MCSF [3] = molecular target: T1, MCSF; experiment: M-NFS-60 proliferation assay, neutralizing activity (Example 1); type: cell-based; conditions: 10 ng/ml M-CSF, 72 hours
Method: Proliferation of M-NFS-60 requires active M-CSF in a dose-dependent fashion. In the assay, M-NFS-60 cells were washed and plated in RPMI 1640 medium with 10% FBS and 3000 U/ml of M-CSF and 1% Pen/Strep. Recombinant human M-CSF (at 10 ng/ml final concentration), human or murine-specific, was incubated with various concentrations of antibodies for 1 hour at 37° C. in 5% CO2 in an incubator. Following the incubation, the mixture was added to the M-NFS-60 culture in 96 well microtiter plates. Cells were incubated at 37° C. under 5% CO2 for 72 hours before cell numbers were quantified by CellTiter Glo assay (Promega). The aforementioned assay was repeated for antibodies MC3 and MC1.

Molecule | ka (MCSF [1]; Table 11, 25° C.) | kd (MCSF [1]; Table 11, 25° C.) | Size of antigen-antibody complex (MCSF [2]) | Type of antigen-antibody complex formed with MCSF (MCSF [2]) | kd (sec-1) (MCSF [1]; Table 10, 25° C.) | kd (sec-1) (MCSF [1]; Table 11, 25° C.) | Neutralization of M-CSF activity (M-NFS-60 proliferation) (MCSF [3])
heRX1-9.G2: Human Engineered RX1: light chain Low + Mod Risk (Germline), heavy chain Low Risk (Kabat), Gamma 2 (antibody, left off: a dimerising Fc or GST) heavy: DVQLQESGPGLVKPSQTLSLTCTVTDYSITSDYAWNWIRQFPGKKLEWMGYISYSGSTSYNPSLKSRITISRDTSKNQFSLQLNSVTAADTATYYCASFDYAHAMDYWGQGTTVTVSS light: DIVLTQSPAFLSVTPGEKVTFTCQASQSIGTSIHWYQQKTDQAPKLLIKYASESISGIPSRFSGSGSGTDFTLTISSVEAEDAADYYCQQINSWPTTFGGGTKLEIKRT | 200000 M⁻¹ s⁻¹ | 0.00144 s⁻¹ | about 400 kDa | 2:1 or 2:2 complexes | – | – | –
heRX1-1.G2: Human Engineered RX1: light chain Low Risk (Kabat), heavy chain Low Risk (Kabat), Gamma 2 (antibody, left off: a dimerising Fc or GST) heavy: DVQLQESGPGLVKPSQTLSLTCTVTDYSITSDYAWNWIRQFPGKKLEWMGYISYSGSTSYNPSLKSRITISRDTSKNQFSLQLNSVTAADTATYYCASFDYAHAMDYWGQGTTVTVSS light: EIVLTQSPGTLSVSPGERVTFSCRASQSIGTSIHWYQQKTGQSPRLLIKYASERISGIPDRFSGSGSGTDFTLTISRVESEDFADYYCQQINSWPTTFGQGTKLEIKRT | – | – | greater than 2×10^6 Da | large lattice aggregates | (1.37 ± 0.24) × 10^−3 sec-1 | (1.37 ± 0.24) × 10^−3 sec-1 | –
heRX1-10.G2: Human Engineered RX1: light chain Low + Mod Risk (Germline), heavy chain Low + Mod Risk (Kabat), Gamma 2 (antibody, left off: a dimerising Fc or GST) heavy: QVQLQESGPGLVKPSQTLSLTCTVSDYSITSDYAWNWIRQFPGKGLEWMGYISYSGSTSYNPSLKSRITISRDTSKNQFSLQLNSVTAADTAVYYCASFDYAHAMDYWGQGTTVTVSS light: DIVLTQSPAFLSVTPGEKVTFTCQASQSIGTSIHWYQQKTDQAPKLLIKYASESISGIPSRFSGSGSGTDFTLTISSVEAEDAADYYCQQINSWPTTFGGGTKLEIKRT | – | – | about 400 kDa | 2:1 or 2:2 complexes | (1.1 ± 0.11) × 10^−3 sec-1 | (1.1 ± 0.11) × 10^−3 sec-1 | –
heRX1-3.G2: Human Engineered RX1: light chain Low + Mod Risk (Kabat), heavy chain Low Risk (Kabat), Gamma 2 (antibody, left off: a dimerising Fc or GST) heavy: DVQLQESGPGLVKPSQTLSLTCTVTDYSITSDYAWNWIRQFPGKKLEWMGYISYSGSTSYNPSLKSRITISRDTSKNQFSLQLNSVTAADTATYYCASFDYAHAMDYWGQGTTVTVSS light: EIVLTQSPGTLSVSPGERVTFSCRASQSIGTSIHWYQQKTGQAPRLLIKYASERATGIPDRFSGSGSGTDFTLTISRVESEDFADYYCQQINSWPTTFGQGTKLEIKRT | 201000 M⁻¹ s⁻¹ | 0.00118 s⁻¹ | – | – | – | – | –
heRX1-7.G2: Human Engineered RX1: light chain Low + Mod Risk (Kabat) − RAT54, 55, 56 to SIS, heavy chain Low Risk (Kabat), Gamma 2 (antibody, V domains shown) VH: DVQLQESGPGLVKPSQTLSLTCTVTDYSITSDYAWNWIRQFPGKKLEWMGYISYSGSTSYNPSLKSRITISRDTSKNQFSLQLNSVTAADTATYYCASFDYAHAMDYWGQGTTVTVSS VL: EIVLTQSPGTLSVSPGERVTFSCRASQSIGTSIHWYQQKTGQAPRLLIKYASESISGIPDRFSGSGSGTDFTLTISRVESEDFADYYCQQINSWPTTFGQGTKLEIK | 157000 M⁻¹ s⁻¹ | 0.00149 s⁻¹ | – | – | – | – | –
heRX1-8.G2: Human Engineered RX1: light chain Low + Mod Risk (Kabat) − RAT 54, 55, 56 to SIS, heavy chain Low + Mod Risk (Kabat), Gamma 2 (antibody, V domains shown) VH: QVQLQESGPGLVKPSQTLSLTCTVSDYSITSDYAWNWIRQFPGKGLEWMGYISYSGSTSYNPSLKSRITISRDTSKNQFSLQLNSVTAADTAVYYCASFDYAHAMDYWGQGTTVTVSS VL: EIVLTQSPGTLSVSPGERVTFSCRASQSIGTSIHWYQQKTGQAPRLLIKYASESISGIPDRFSGSGSGTDFTLTISRVESEDFADYYCQQINSWPTTFGQGTKLEIK | 152000 M⁻¹ s⁻¹ | 0.00148 s⁻¹ | – | – | – | – | –
heRX1-4.G2: Human Engineered RX1: light chain Low + Mod Risk (Kabat), heavy chain Low + Mod Risk (Kabat), Gamma 2 (antibody, left off: a dimerising Fc or GST) heavy: QVQLQESGPGLVKPSQTLSLTCTVSDYSITSDYAWNWIRQFPGKGLEWMGYISYSGSTSYNPSLKSRITISRDTSKNQFSLQLNSVTAADTAVYYCASFDYAHAMDYWGQGTTVTVSS light: EIVLTQSPGTLSVSPGERVTFSCRASQSIGTSIHWYQQKTGQAPRLLIKYASERATGIPDRFSGSGSGTDFTLTISRVESEDFADYYCQQINSWPTTFGQGTKLEIKRT | 238000 M⁻¹ s⁻¹ | 0.00108 s⁻¹ | – | – | – | – | –
heRX1-2.G2: Human Engineered RX1: light chain Low Risk (Kabat), heavy chain Low + Mod Risk (Kabat), Gamma 2 (antibody, left off: a dimerising Fc or GST) heavy: QVQLQESGPGLVKPSQTLSLTCTVSDYSITSDYAWNWIRQFPGKGLEWMGYISYSGSTSYNPSLKSRITISRDTSKNQFSLQLNSVTAADTAVYYCASFDYAHAMDYWGQGTTVTVSS light: EIVLTQSPGTLSVSPGERVTFSCRASQSIGTSIHWYQQKTGQSPRLLIKYASERISGIPDRFSGSGSGTDFTLTISRVESEDFADYYCQQINSWPTTFGQGTKLEIKRT | 218000 M⁻¹ s⁻¹ | 0.00165 s⁻¹ | – | – | – | – | –
heRX1-5.G2: Human Engineered RX1: light chain Low Risk (Kabat) − R54 to S, heavy chain Low Risk (Kabat), Gamma 2 (antibody, left off: a dimerising Fc or GST) heavy: DVQLQESGPGLVKPSQTLSLTCTVTDYSITSDYAWNWIRQFPGKKLEWMGYISYSGSTSYNPSLKSRITISRDTSKNQFSLQLNSVTAADTATYYCASFDYAHAMDYWGQGTTVTVSS light: EIVLTQSPGTLSVSPGERVTFSCRASQSIGTSIHWYQQKTGQSPRLLIKYASESISGIPDRFSGSGSGTDFTLTISRVESEDFADYYCQQINSWPTTFGQGTKLEIKRT | 175000 M⁻¹ s⁻¹ | 0.00129 s⁻¹ | – | – | – | – | –
MC1: MCSF-specific murine antibody MC1 (SEQ ID NOs: 12 and 13), hybridoma ATCC PTA-6263 (antibody, listed as Mus musculus) heavy: EVKLVESGGGLVQPGGSLKLSCATSGFTFSDYYMYWVRQTPEKRLEWVAYISNGGGSTYYPDTVKGRFTISRDNAKNTLYLQMSRLKSEDTAMYYCARQGSYGYPFAYWGQGTLVTVSAAKTTAPSVYPLAPVCGDTTGSSVTLGCLVKGYFPEPVTLTWNSGSLSSGVHTFPAVLQSDLYTLSSSVTVTSSTWPSQSITCNVAHPASSTKVDKKIEPRGPTIKPCPPCKCPAPNLLGGPSVFIFPPKIKDVLMISLSPIVTCVVVDVSEDDPDVQISWFVNNVEVHTAQTQTHREDYNSTLRVVSALPIQHQDWMSGKEFKCKVNNKDLPAPIERTISKPKGSVRAPQVYVLPPPEEEMTKKQVTLTCMVTDFMPEDIYVEWTNNGKTELNYKNTEPVLDSDGSYFMYSKLRVEKKNWVERNSYSCSVVHEGLHNHHTTKSFSRTPGK light: AIQMTQTTSSLSASLGDRVTISCSASQGISNYLNWYQQKPDGTVKLLIYYTSSLHSGVPSRFSGSGSGTDYSLTISNLEPEDIATYYCQQYSKLPWTFGGGTKLEIKRADAAPTVSIFPPSSEQLTSGGASVVCFLNNFYPKDINVKWKIDGSERQNGVLNSWTDQDSKDSTYSMSSTLTLTKDEYERHNSYTCEATHKTSTSPIVKSFNRNEC | – | – | – | – | – | – | effective inhibitors of M-CSF activity
